Source: paper PMC2965767, “Identification and Genome-Wide Prediction of DNA Binding Specificities for the ApiAP2 Family of Regulators from the Malaria Parasite”

Key:
[1] = target: T1, MAL8P1.153 D1 (PF3D7_0802100, AP2 domain transcription factor, putative) (Plasmodium falciparum) (UniProt Q8IAM1); conditions: PBM; highest protein concentration obtained; buffer not given; scale: PBM E-score of the seed 8-mer
T1 sequence: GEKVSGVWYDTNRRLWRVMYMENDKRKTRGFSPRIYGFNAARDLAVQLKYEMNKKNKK

[2] = target: T2, PF11_0091 D1 (PF3D7_1107800, AP2 domain transcription factor, putative) (Plasmodium falciparum) (UniProt Q8IIS4); conditions: PBM; highest protein concentration obtained; buffer not given; scale: PBM E-score of the seed 8-mer
T2 sequence: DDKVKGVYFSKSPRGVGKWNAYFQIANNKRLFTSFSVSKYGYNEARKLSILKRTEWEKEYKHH

[3] = target: T3, PFE0840c D2 (PF3D7_0516800, AP2 domain transcription factor AP2-O2, putative) (Plasmodium falciparum) (UniProt Q8I3U0); conditions: PBM; highest protein concentration obtained; buffer not given; scale: PBM E-score of the seed 8-mer
T3 sequence: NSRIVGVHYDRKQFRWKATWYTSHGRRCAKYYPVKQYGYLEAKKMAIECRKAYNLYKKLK

[4] = target: T4, PFF0200c DLD (PF3D7_0604100, AP2 domain transcription factor) (Plasmodium falciparum) (UniProt C6KSN9); conditions: PBM; highest protein concentration obtained; buffer not given; scale: PBM E-score of the seed 8-mer
T4 sequence: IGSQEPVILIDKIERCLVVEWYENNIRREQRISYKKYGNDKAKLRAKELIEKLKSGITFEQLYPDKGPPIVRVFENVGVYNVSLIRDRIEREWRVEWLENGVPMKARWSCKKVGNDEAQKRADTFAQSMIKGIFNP

[5] = target: T5, PF07_0126 DLDext (PF3D7_0730300, AP2 domain transcription factor AP2-L, putative) (Plasmodium falciparum) (UniProt Q8IBF6); conditions: PBM; highest protein concentration obtained; buffer not given; scale: PBM E-score of the seed 8-mer
T5 sequence: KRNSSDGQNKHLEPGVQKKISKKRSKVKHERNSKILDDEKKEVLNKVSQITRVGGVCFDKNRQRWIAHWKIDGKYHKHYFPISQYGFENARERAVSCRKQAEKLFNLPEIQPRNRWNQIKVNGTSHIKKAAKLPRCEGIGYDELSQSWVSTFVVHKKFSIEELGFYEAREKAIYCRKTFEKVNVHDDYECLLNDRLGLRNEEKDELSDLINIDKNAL

[6] = target: T6, PFF0670w D1 (PF3D7_0613800, AP2 domain transcription factor, putative) (Plasmodium falciparum) (UniProt C6KSY0); conditions: PBM; highest protein concentration obtained; buffer not given; scale: PBM E-score of the seed 8-mer
T6 sequence: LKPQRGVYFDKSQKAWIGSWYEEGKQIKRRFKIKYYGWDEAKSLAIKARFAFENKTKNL

[7] = target: T7, PF13_0235 D1ext (PF3D7_1342900, AP2 domain transcription factor, putative) (Plasmodium falciparum) (UniProt C0H5G5); conditions: PBM; highest protein concentration obtained; buffer not given; scale: PBM E-score of the seed 8-mer
T7 sequence: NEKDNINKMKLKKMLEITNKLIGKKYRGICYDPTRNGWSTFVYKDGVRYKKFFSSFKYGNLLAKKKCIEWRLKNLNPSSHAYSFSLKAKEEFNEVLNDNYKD

[8] = target: T8, PF11_0442 D1ext (PF3D7_1143100, AP2 domain transcription factor AP2-O, putative) (Plasmodium falciparum) (UniProt Q8IHT5); conditions: PBM; highest protein concentration obtained; buffer not given; scale: PBM E-score of the seed 8-mer
T8 sequence: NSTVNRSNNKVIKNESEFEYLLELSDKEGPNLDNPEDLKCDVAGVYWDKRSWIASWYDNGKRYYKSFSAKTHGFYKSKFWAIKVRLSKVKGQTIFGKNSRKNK

[9] = target: T9, PF10_0075 D2ext (PF3D7_1007700, AP2 domain transcription factor AP2-I) (Plasmodium falciparum) (UniProt Q8IJW6); conditions: PBM; highest protein concentration obtained; buffer not given; scale: PBM E-score of the seed 8-mer
T9 sequence: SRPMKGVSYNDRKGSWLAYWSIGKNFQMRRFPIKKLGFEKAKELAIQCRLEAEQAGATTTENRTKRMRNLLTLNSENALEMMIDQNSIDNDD

[10] = target: T10, PF14_0079 D1 (PF3D7_1408200, AP2 domain transcription factor AP2-G2, putative) (Plasmodium falciparum) (UniProt Q8IM14); conditions: PBM; highest protein concentration obtained; buffer not given; scale: PBM E-score of the seed 8-mer
T10 sequence: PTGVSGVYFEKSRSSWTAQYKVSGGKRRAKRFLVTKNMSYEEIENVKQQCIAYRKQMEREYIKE

[11] = target: T11, PFL1900w D1ext (PF3D7_1239200, AP2 domain transcription factor, putative) (Plasmodium falciparum) (UniProt Q8I531); conditions: PBM; highest protein concentration obtained; buffer not given; scale: PBM E-score of the seed 8-mer
T11 sequence: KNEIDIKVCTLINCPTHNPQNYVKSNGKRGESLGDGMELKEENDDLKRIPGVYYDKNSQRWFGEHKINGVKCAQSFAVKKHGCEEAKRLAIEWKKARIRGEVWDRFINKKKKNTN

[12] = target: T12, PF13_0026 D1 (PF3D7_1305200, AP2 domain transcription factor, putative) (Plasmodium falciparum) (UniProt Q8IER4); conditions: PBM; highest protein concentration obtained; buffer not given; scale: PBM E-score of the seed 8-mer
T12 sequence: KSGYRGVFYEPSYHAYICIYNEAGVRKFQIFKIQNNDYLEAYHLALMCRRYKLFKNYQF

[13] = target: T13, PFD0985w D1 (ApiAP2) (Plasmodium falciparum) (UniProt Q8I1N6); conditions: PBM; highest protein concentration obtained; buffer not given; scale: PBM E-score of the seed 8-mer
T13 sequence: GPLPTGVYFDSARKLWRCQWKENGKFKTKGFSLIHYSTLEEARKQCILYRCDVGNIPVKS

[14] = target: T14, PF13_0235 D1ext (PF3D7_1342900, AP2 domain transcription factor, putative) (Plasmodium falciparum, UniProt C0H5G5 2339-2440); assay: EMSA; 5 mM MgCl2 with 10 mM EDTA; LightShift buffer, 2.5% glycerol, 50 mM KCl, 0.05% NP-40, 50 ng/uL poly(dI-dC); room temperature, 20 min; conditions: tags: N-terminal GST (pGEX-4T1), kept; label: 5' biotin
T14 sequence: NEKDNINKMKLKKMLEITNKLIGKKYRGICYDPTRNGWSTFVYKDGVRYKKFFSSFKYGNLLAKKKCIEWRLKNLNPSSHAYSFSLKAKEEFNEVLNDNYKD

[15] = target: T15, PFD0985w_D2 (AP2 domain 2) (Plasmodium falciparum, UniProt Q8I1N6 3268-3321); assay: EMSA; poly(dI-dC); LightShift EMSA buffer, 2.5% glycerol, 5 mM MgCl2, 10 mM EDTA, 50 mM KCl, 0.05% NP-40, 50 ng/uL poly(dI-dC), 10 fmol biotin probe, 50 or 250x competitor, room temperature 20 min; conditions: protein: recombinant; tags: N-terminal GST (pGEX-4T1); label: 5' biotin (probe); blunt
T15 sequence: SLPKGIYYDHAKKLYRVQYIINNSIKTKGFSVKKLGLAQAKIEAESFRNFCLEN

[16] = target: T16, PFL1900w DLD (PF3D7_1239200, AP2 domain transcription factor, putative) (Plasmodium falciparum, UniProt Q8I531 2149-2347); assay: EMSA; 5 mM MgCl2 with 10 mM EDTA; LightShift buffer, 2.5% glycerol, 50 mM KCl, 0.05% NP-40, 50 ng/uL poly(dI-dC); room temperature, 20 min; conditions: tags: N-terminal GST (pGEX-4T1), kept; label: 5' biotin
T16 sequence: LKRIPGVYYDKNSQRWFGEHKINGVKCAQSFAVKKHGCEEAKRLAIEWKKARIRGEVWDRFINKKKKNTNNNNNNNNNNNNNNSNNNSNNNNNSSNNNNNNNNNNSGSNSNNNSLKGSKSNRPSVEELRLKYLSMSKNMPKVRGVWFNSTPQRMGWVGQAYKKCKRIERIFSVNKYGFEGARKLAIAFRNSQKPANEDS

[17] = target: T17, PF13_0267 D1 (PF3D7_1350900, AP2 domain transcription factor AP2-O4, putative) (Plasmodium falciparum, UniProt A0A5K1K8Z4 400-521); assay: as above; conditions: tags: N-terminal GST (pGEX-4T1), kept; label: 5' biotin
T17 sequence: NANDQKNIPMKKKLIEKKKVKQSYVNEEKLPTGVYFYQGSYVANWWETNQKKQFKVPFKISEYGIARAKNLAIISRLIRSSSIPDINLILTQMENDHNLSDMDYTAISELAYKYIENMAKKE

## CACACACA (double strand) [MAL8P1.153 primary motif]
[1]
  binding signal: 0.477

## AGCATAC (double strand) [PF11_0091 primary motif]
[2]
  binding signal: 0.472

## TGACATCA (double strand) [PFE0840c_D2 primary motif]
[3]
  binding signal: 0.472

## GTGCAC (double strand) [PFF0200c_DLD primary motif]
[4]
  binding signal: 0.481

## AATTTCC (double strand) [PF07_0126_DLD primary motif]
[5]
  binding signal: 0.467

## WTAAGCC (double strand) [PFF0670w_D1 primary motif]
[6]
  binding signal: 0.465

## GCCCCGC (double strand) [PF13_0235_D1 primary motif]
[7]
  binding signal: 0.494

## AGCTAGCT (double strand) [PF11_0442 primary motif]
[8]
  binding signal: 0.478

## TCTTGCC (double strand) [PF10_0075_D2 primary motif]
[9]
  binding signal: 0.468

## AWGGKMCC / GGKMCCWT [PF13_0235_D1 Secondary motif 1]
[7]
  binding signal: > 0.45

## TGCNACCA (double strand) [PF14_0079 primary motif]
[10]
  binding signal: 0.487

## TTCTACA (double strand) [PFL1900w_D1 primary motif]
[11]
  binding signal: 0.46

## TGCACACAC (double strand) [PF13_0026 primary motif]
[12]
  binding signal: 0.495

## GTGTGTG (double strand) [PFD0985w_D1 primary motif]
[13]
  binding signal: 0.497

B1: hsp86 (dsDNA)
DNA 1: TTTTAAAAAAAAAAAAAAAGCCCCGCGGAAAGGGGCCATTGGATATATATTTAGTATTCC
DNA 2: GGAATACTAAATATATATCCAATGGCCCCTTTCCGCGGGGCTTTTTTTTTTTTTTTAAAA
[14]
  binding result: binds

B2: PFD0985w_D2-1° (dsDNA)
DNA 1: AATATTATAATAGTCGTAGCCATCAATGTGTAACACATGGTAATATAGATTTTCGTTTATATT
DNA 2: AATATAAACGAAAATCTATATTACCATGTGTTACACATTGATGGCTACGACTATTATAATATT
[15]
  binding result: binds

B3: hsp86-MUT3 (dsDNA)
DNA 1: TTTTAAAAAAAAAAAAAAAGTATAGCGGAAATATACCATTGGATATATATTTAGTATTCC
DNA 2: GGAATACTAAATATATATCCAATGGTATATTTCCGCTATACTTTTTTTTTTTTTTTAAAA
[14]
  binding result: no binding

B4: PFL1900w_DLD-1 (motif rank) (dsDNA)
DNA 1: AATATTATAATAGTCGTAGCCATCAATTCTACAAAATGGTAATATAGATTTTCGTTTATATT
DNA 2: AATATAAACGAAAATCTATATTACCATTTTGTAGAATTGATGGCTACGACTATTATAATATT
[16]
  binding result: binds

B5: PFL1900w_DLD-2 (motif rank) (dsDNA)
DNA 1: AATATTATAATAGTCGTAGCCATCAATACGACATCATGGTAATATAGATTTTCGTTTATATT
DNA 2: AATATAAACGAAAATCTATATTACCATGATGTCGTATTGATGGCTACGACTATTATAATATT
[16]
  binding result: binds

B6: pfc0975c (dsDNA)
DNA 1: TTATGATGATACATAAATTACTGATCTTTCTAGGTGCGCTGCTACCATTATCGTGAATAA
DNA 2: TTATTCACGATAATGGTAGCAGCGCACCTAGAAAGATCAGTAATTTATGTATCATCATAA
[17]
  binding result: binds

B7: pfc0975c-MUT (dsDNA)
DNA 1: TTATGATGATACATAAATTACTGATCTTTCAAAGTGCGCTGCTACCATTATCGTGAATAA
DNA 2: TTATTCACGATAATGGTAGCAGCGCACTTTGAAAGATCAGTAATTTATGTATCATCATAA
[17]
  binding result: no binding
